Reference: patent US20180298097A1

How the values were obtained:
CHO-huTIM3 = CHO-huTIM3 (UniProt Q8TDQ0); assay: FACS binding, CHO-huTIM3 transfectant; isotype control
mouse TIM3 (mouse) [1] = target: mouse TIM3 (mouse) (UniProt Q8VIM0); assay: binding to activated mouse T cells; method not described
mouse TIM3 (mouse) [2] = target: mouse TIM3 (mouse) (UniProt Q8VIM0); assay: binding to activated mouse T cells, compared with TIM3.18 binding to human TIM-3

mouse TIM3 (mouse), sequence (Q8VIM0 20-281): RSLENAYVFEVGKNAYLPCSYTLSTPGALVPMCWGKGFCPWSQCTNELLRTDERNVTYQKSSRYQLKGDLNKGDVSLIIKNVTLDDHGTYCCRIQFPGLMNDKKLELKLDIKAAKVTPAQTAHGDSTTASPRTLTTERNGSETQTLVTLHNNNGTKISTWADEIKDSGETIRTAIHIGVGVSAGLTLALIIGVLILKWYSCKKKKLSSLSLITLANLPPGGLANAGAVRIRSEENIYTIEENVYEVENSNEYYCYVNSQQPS

Row | EC50 (CHO-huTIM3) | EC50 (mouse TIM3 (mouse) [1]) | fold weaker EC50 than TIM3.18 on human TIM-3 (mouse TIM3 (mouse) [2]) | Substance
1 | 42.3 mg/mL | – | – | hIgG2
2 | 29.3 mg/mL | – | – | hIgG4
3 | – | 1.7 nM | 17 fold | rat anti-mouse TIM-3 antibody RMT3-23 (Bio-X-Cell)
